Source: paper PMC5233953

How the values were obtained:
[1] = molecular target: FrpD_(43-271) protein (Neisseria meningitidis); assay: SEC; Superdex 200 HR column; free proteins and an equimolar mixture of purified FrpD and FrpC_(1-414)
[2] = molecular target: FrpD_(43-271) protein (Neisseria meningitidis); assay: SAXS; beamline X33 EMBL, room temperature; FrpD 1–9 mg/ml, FrpD-FrpC_(1-414) complex 1–5 mg/ml; molecular mass from the Porod volume
[3] = molecular target: FrpD_(43-271) protein (Neisseria meningitidis); assay: cross-linking; FrpD-FrpC_(1-414) complex (1 mg/ml, 14 μM) with a 1:1 mixture of d0/d4 BS2G, 30 min; 70-kDa band digested with trypsin, nano-ESI-FTICR mass spectrometry

Measured: stoichiometry N

B1: FrpC_(1-414), the N-terminal domain of FrpC (domain or fragment)
chain: MNEGEVVLTPEQIQTLRGYASRGDTYGGWRYLANLGDRYADNAAAIVGKDTNLNGLNLWMKKGVENLWDDTVGKKTRLEKFDRVALQHFSQYVDLINKNNGRLPNTSEIERSYYKAVTYHGVSSSAAIDLVINRSLPDMADGYWALGLGIEAERIHNEQAVNNPNGSERDNRKQLISALDKGFDGSFKEKHFTFLQSVMMDLTKLGVEYTIDGWQKIGGWGNGIINDLYKSVVKREWTGIFEIVNNNIKQGNEAFKNEINSLVHDMKAAGKEFGDDLNTQWNNLTQAAEIIYNDIVDNTSQGIEKGVKAIKELSEKMKNAASDLADGSAEKAKQVVEDLAQAAKEAYENAKSTAEKAAQAAREFFKGLPSFKDLAEKFRDLFPNPEGWIDDGHQCFAPWVKETKKRNGKYHVYD
1: all assays above
